Positions count from the first letter of the chain named.
T1: human RSPO3 (Homo sapiens, UniProt Q9BXY4)
T1 construct: purchased R&D Systems
T1 sequence (Q9BXY4 22-272): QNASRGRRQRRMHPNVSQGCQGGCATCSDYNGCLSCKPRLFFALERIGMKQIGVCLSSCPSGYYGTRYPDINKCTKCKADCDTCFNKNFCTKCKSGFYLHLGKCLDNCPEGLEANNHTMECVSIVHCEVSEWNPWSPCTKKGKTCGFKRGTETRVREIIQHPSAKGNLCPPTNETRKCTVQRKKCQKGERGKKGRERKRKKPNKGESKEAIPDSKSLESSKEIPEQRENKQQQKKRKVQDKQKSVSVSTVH

T2: binding of RSPO3 to LGR5 (Homo sapiens, UniProt Q9BXY4)
T2 construct: expressed in transfected cells; host or cells: HEK-293T
T2 sequence (Q9BXY4 22-272): T1 sequence (Q9BXY4 22-272)

B1: 131R002: anti-RSPO3 antibody from a mammalian cell antibody library; heavy chain variable region SEQ ID NO:15, light chain variable region SEQ ID NO:17 (antibody, V domains shown)
VH: QVQLQESGPELVKPGASVKISCKASGYTFTDYSIHWVKQNHGKSLDWIGYIYPSNGDSGYNQKFKNRATLTVDTSSSTAYLEVRRLTFEDSAVYYCATYFANYFDYWGQGTTLTVSSAST
VL: DIVLTQSPASLAVSLGQRATISCKASQSVDYDGDSYMNWYQQKPGQPPKLLIYAASNLESGIPARFSGSGSGTDFTLNIHPVEEEDAATYYCQQSNEDPLTFGAGTKLELKR
modifications: 131R002 Heavy chain variable region; 131R002/131R003 Light chain variable region
B2: h131R007: humanized 131R003 variant, IgG2; heavy chain variable region SEQ ID NO:44, light chain variable region SEQ ID NO:72 (antibody, V domains shown)
VH: QVQLVQSGAEVKKPGASVKVSCKASGYTFTDYSIHWVRQAPGQGLEWIGYIYPSNGDSGYNQKFKNRVTMTRDTSTSTAYMELSRLRSEDTAVYYCATYFANNFDYWGQGTTLTVSS
VL: B1 VL with S22T, N78T, H80N, E84A, A87V
modifications: Humanized 131R005/131R007/131R008/ 131R010/131R011 Heavy chain variable region; Humanized 131R005/131R007/131R008 Light chain variable region

Assays:
OMP-LU25 lung tumor = OMP-LU25 lung tumor xenograft growth; assay type: in vivo, NOD/SCID mice; details: 25 mg/kg once a week intraperitoneal, vs control antibody, FIG. 7B
Procedure: In a study with a second lung tumor, dissociated OMP-LU25 lung tumor cells (5×10^4 cells) were injected into 6-8 week old NOD/SCID mice. Tumors were allowed to grow for 48 days until they reached an average volume of 110 mm^3. The mice were randomized (n=9 per group) and treated with anti-RSPO3 antibody 131R002 or a control antibody. […] Data are expressed as mean±S.E.M.
OMP-LU25 tumor cells (5×10^4) were injected into NOD-SCID mice. Tumors were allowed to grow for 33 days until they reached an average volume of 120 mm^3. Tumor-bearing mice were randomized into 4 groups (n=9 per group). Tumor-bearing mice were treated with either control antibody, anti-RSPO3 antibody 131R008, paclitaxel, or the combination of anti-RSPO3 antibody 131R008 and paclitaxel. Antibodies were dosed weekly at 20 mg/kg. Paclitaxel was dosed weekly at 15 mg/kg.

[1] = tested on: OMP-LU45 non-small cell lung tumors; experiment: OMP-LU45 lung tumor xenograft growth; assay type: in vivo, NOD/SCID mice; details: 25 mg/kg once a week intraperitoneal, vs control antibody, FIG. 7A
Procedure: In OMP-LU45 non-small cell lung tumors, it has been observed that CD201^+ cells are more tumorigenic than CD201^− cells. […] Dissociated and sorted OMP-LU45 CD44^+CD201^+ lung tumor cells (5×10^4 cells) were injected into 6-8 week old NOD/SCID mice. Tumors were allowed to grow for 38 days until they reached an average volume of 140 mm^3. The mice were randomized (n=10 per group) and treated with anti-RSPO3 antibody 131R002 or a control antibody. […] Data are expressed as mean±S.E.M.

OMP-LU102 lung tumor = experiment: OMP-LU102 NSCLC xenograft growth; assay type: in vivo, NOD-SCID mice; details: antibody 25 mg/kg once a week, carboplatin 50 mg/kg once a week, FIG. 11A
Procedure: OMP-LU102 is a patient-derived non-small cell lung cancer (NSCLC) xenograft that was selected for testing based on a high level of RSPO3 expression in microarray data. OMP-LU102 lung tumor cells (1×10^5) were injected into NOD-SCID mice. […] Carboplatin was dosed at 50 mg/kg once a week.

[2] = tested on: RSPO3-induced β-catenin signaling; experiment: TOPflash 6xTCF-luciferase reporter assay in HEK-293 cells with WNT3a and RSPO3; assay type: cell-based, human
Procedure: HEK-293 cells were transfected with a 6×TCF-luciferase reporter vector (TOPflash, Millipore, Billerica, Mass.). After 24-48 hrs, the transfected HEK-293 cells were incubated with a combination of WNT3a (5 ng/ml) and human RSPO3 (10 ng/ml, R&D BioSystems, Minneapolis, Minn.) in the presence of anti-RSPO3 antibodies 131R002 and 131R003. Antibodies 131R002 and 131R003 were added to the cells in 4-fold serial dilutions from 20 μg/ml to 0.02 μg/ml. As controls, cells were incubated with a combination of WNT3a and RSPO3, WNT3a only, RSPO3 only, or with no addition. The cells were incubated for 16 hours and luciferase activity was measured using Steady-Glo® Luciferase Assay System according to the manufacturer's instructions (Promega, Madison, Wis.).
HEK-293 cells were transfected with a 6×TCF-luciferase reporter vector (TOPflash, Millipore, Billerica, Mass.). After 24-48 hrs, the transfected HEK-293 cells were incubated with a combination of WNT3a and human RSPO3 in the presence of anti-RSPO3 antibodies 131R003, 131R003 CDR1 variant and 131R003 CDR3 variant. 131R003, 131R003 CDR1 variant, and 131R003 CDR3 variant were added to the cells in 5-fold serial dilutions from 20 μg/ml to 0.006 μg/ml. As controls, cells were incubated with a combination of WNT3a and RSPO3, WNT3a only, RSPO3 only, a control antibody, or with no addition. The cells were incubated for 16 hours and luciferase activity was measured using Steady-Glo® Luciferase Assay System according to the manufacturer's instructions (Promega, Madison, Wis.).
HEK-293 cells were transfected with a 6×TCF-luciferase reporter vector (TOPflash, Millipore, Billerica, Mass.). After 24-48 hrs, the transfected HEK-293 cells were incubated with a combination of WNT3a conditioned medium (5 ng/ml) and human RSPO3 (10 ng/ml, R&D BioSystems) in the presence of anti-RSPO3 antibodies 131R002, 131R006B, or 131R007. Antibodies 131R002, 131R006 or 131R007 were added to the cells in 5-fold serial dilutions from 20 μg/ml to 0.0064 μg/ml. As controls, cells were incubated with WNT3a conditioned medium alone, a combination of WNT3a conditioned medium and human RSPO3, or with no addition to cells. The cells were incubated for 16 hours and luciferase activity was measured using Steady-Glo® Luciferase Assay System according to the manufacturer's instructions (Promega, Madison, Wis.).
HEK-293 cells were transfected with a 6×TCF-luciferase reporter vector (TOPflash, Millipore, Billerica, Mass.). […] The cells were incubated for 16 hours and luciferase activity was measured using Steady-Glo® Luciferase Assay System according to the manufacturer's instructions (Promega, Madison, Wis.).

[3] = tested on: gene sets characteristic of normal stem cells or cancer stem cells; experiment: Microarray gene set enrichment analysis of treated OMP-LU102 tumors; assay type: in vivo, NOD-SCID mice; details: RNA from OMP-LU102 tumors after treatment, FIG. 11B
Procedure: RNA was prepared from tumors from each of the four experimental groups following the treatment. Gene expression was characterized by microarray analysis.

human RSPO3 = target: T1, human RSPO3; experiment: Biacore 2000 affinity, antibody captured by anti-human IgG, RSPO3 injected (Example 10); assay type: binding; details: human RSPO3 300 nM to 37.5 nM over captured antibody, Table 4
Procedure: The method used was different than described in Example 3. A goat anti-human IgG antibody was coupled to a carboxymethyl-dextran (CM5) SPR chip using standard amine-based chemistry (NHS/EDC) and blocked with ethanolamine. Antibodies (purified antibody or culture supernatant) were diluted to a concentration of 10 μg/ml in HBS-P-BSA (0.01M HEPES pH7.4, 0.15M NaCl, 0.005% v/v Polysorbate 20, 100 ug/ml BSA) and captured onto the chip via the anti-human IgG antibody. Human RSPO3 (R&D Systems) was serially diluted 2-fold from 300 nM to 37.5 nM in HBS-P-BSA and injected sequentially over the captured anti-RSPO3 antibodies. RSPO3 association and dissociation was measured at each concentration. After each antigen injection 5 μl of 100 mM H3P04 was injected to remove the antigen-antibody complex and a subsequent injection performed. Kinetic data were collected over time and were fit using the simultaneous global fit equation to yield affinity constants (KD values) for each antibody (Table 4).

binding of RSPO3 to LGR5 = target: T2, binding of RSPO3 to LGR5; experiment: FACS inhibition of RSPO3-biotin binding to LGR5-expressing HEK-293T cells; details: PE-streptavidin, flow cytometry, FIG. 9
Procedure: HEK-293T cells were transfected with a cDNA expression vector that encoded the extracellular domain of human LGR5 (FLAG-LGR5-CD4TM-GFP). Transfected cells were incubated with recombinant RSPO3-biotin fusion protein in the presence of anti-RSPO3 antibodies 131R006B or 131R007. Cells were incubated without antibody as a control. Cells were washed in PBS and binding of RSPO3 to LGR5-expressing transfected cells was determined by addition of PE-conjugated streptavidin and analysis by flow cytometry.

Kd (human RSPO3) [nM] | Molecule | OMP-LU25 lung tumor growth (OMP-LU25 lung tumor) | OMP-LU45 lung tumor growth [1] | OMP-LU102 lung tumor growth (OMP-LU102 lung tumor) | RSPO3-induced β-catenin signaling ([2]; WNT3a 5 ng/ml + RSPO3 10 ng/ml, antibody 20 to 0.02 μg/ml, FIG. 3) | expression of gene sets characteristic of normal stem cells or cancer stem cells [3] | ability to inhibit β-catenin activity compared with 131R002 ([2]; WNT3a conditioned medium 5 ng/ml + human RSPO3 10 ng/ml, FIG. 8) | blocking binding of RSPO3 to LGR5-expressing cells (binding of RSPO3 to LGR5)
 | B1 | inhibited growth | inhibited growth | inhibited OMP-LU102 lung tumor growth as a single agent | reduced RSPO3-induced β-catenin signaling in a dose-dependent manner | inhibited the expression of various gene sets characteristic of normal stem cells or cancer stem cells |  | 
0.654 | B2 |  |  |  |  |  | greater ability to inhibit β-catenin activity than antibody 131R002 | highly effective in blocking binding of RSPO3 to LGR5-expressing cells
